{
  "source": "patent US20140171373",
  "key": {"[1]": {"molecular_target": "human tauP301L, full-length (from Tg4510 / rTg4510 mouse brain), P10636", "sequence (P10636 whole entry, looked up)": "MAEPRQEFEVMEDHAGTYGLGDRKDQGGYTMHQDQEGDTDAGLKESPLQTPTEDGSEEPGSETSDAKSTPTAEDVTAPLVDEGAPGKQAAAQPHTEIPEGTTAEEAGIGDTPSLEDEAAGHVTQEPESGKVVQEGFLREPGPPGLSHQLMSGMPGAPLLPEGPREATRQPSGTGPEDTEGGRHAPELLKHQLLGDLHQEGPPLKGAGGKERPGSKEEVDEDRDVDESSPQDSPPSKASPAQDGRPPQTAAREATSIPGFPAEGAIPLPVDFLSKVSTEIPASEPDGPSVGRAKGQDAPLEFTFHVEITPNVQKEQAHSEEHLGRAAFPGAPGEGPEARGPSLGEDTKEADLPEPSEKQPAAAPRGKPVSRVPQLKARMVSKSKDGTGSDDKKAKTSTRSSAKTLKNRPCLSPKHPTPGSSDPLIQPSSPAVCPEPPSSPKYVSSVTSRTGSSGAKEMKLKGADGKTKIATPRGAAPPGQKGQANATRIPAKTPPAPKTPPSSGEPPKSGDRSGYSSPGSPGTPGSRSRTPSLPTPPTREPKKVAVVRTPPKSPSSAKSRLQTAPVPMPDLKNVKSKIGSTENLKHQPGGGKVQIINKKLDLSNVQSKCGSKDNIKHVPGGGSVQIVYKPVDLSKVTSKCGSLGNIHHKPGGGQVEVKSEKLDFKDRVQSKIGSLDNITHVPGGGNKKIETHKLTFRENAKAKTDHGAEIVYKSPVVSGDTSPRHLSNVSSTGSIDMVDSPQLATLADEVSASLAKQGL"}, "[2]": {"molecular_target": "human wild-type tau (tauWT), full-length, P10636", "sequence (P10636 other isoform, or with tags, fused parts or gaps)": "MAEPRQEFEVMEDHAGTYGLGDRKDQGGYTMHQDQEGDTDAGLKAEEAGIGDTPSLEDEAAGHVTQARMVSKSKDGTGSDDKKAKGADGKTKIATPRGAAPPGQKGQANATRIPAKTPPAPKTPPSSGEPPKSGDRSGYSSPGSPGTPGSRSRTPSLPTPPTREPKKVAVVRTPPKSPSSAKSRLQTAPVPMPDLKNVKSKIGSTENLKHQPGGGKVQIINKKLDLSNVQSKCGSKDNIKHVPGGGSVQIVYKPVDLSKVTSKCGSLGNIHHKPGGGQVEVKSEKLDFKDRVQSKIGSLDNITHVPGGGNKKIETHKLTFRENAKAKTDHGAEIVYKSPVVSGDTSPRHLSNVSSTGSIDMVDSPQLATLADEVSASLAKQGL"}, "[3]": {"molecular_target": "tauD314E, P10636", "sequence (P10636 whole entry, looked up)": "as the sequence (P10636 whole entry, looked up) above"}, "[4]": {"molecular_target": "tauD314G, P10636", "sequence (P10636 whole entry, looked up)": "as above"}, "[5]": {"molecular_target": "T1, z-VAD-fmk (benzyloxycarbonyl-Val-Ala-Asp-fluoromethylketone)", "T1 chain": "VAD"}},
  "data": [
    {"protein": "caspase-2 (protein) chain 1: GPVCLQVKPCTPEFYQTHFQLAYRLQSRPRGLALVLSNVHFTGEKELEFRSGGDVDHSTLVTLFKLLGYDVHVLCDQTAQEMQEKLQNFAQLPAHRVTDSCIVALLSHGVEGAIYGVDGKLLQLQEVFQLFDNANCPSLQNKPKMFFIQACRGDET chain 2: GKNHAGSPGCEESDAGKEKLPKMRLPTRSDMICGYACLKGTAAMRNTKRGSWYIEALAQVFSERACDMHVADMLVKVNALIKDREGYAPGTEFHRCKEMSEYCSTLCRHLYLFPGHPPT", "values": [
      {"measurement": "35 kDa fragment on Tau-13 immunoblot after incubation with the caspase", "setting": "[1]", "result": "a 35 kDa fragment generated by co-incubating caspase-2 with full-length tau proteins purified from (A) brain lysates of Tg4510 mice expressing human tauP301L"},
      {"measurement": "35 kDa fragment after incubation with recombinant caspase-2", "setting": "[2]", "result": "generated a 35 kDa fragment only in the wild-type tau reaction that comigrates with tau truncation mutant ΔC314"},
      {"measurement": "35 kDa fragment on Tau-13 immunoblot after incubation with the caspase", "setting": "[2]", "result": "a 35 kDa fragment generated by co-incubating caspase-2 with full-length tau proteins purified from ... (B) brain lysates of rTg21221 mice expressing human wild-type tau (tauWT) ... or (C) synthetic human tauWT"},
      {"measurement": "35 kDa fragment after incubation with recombinant caspase-2", "setting": "[3]", "result": "generated a 35 kDa fragment only in the wild-type tau reaction (tauD314E: none)"},
      {"measurement": "35 kDa fragment after incubation with recombinant caspase-2", "setting": "[4]", "result": "generated a 35 kDa fragment only in the wild-type tau reaction (tauD314G: none)"},
      {"measurement": "cleavage of tau by the caspase, Tau-13 immunoblot", "setting": "[5]", "result": "50 µM z-VAD-fmk ... (+inhibitor), a general caspase inhibitor, blocked all cleavage"},
      {"measurement": "cleavage of the FITC peptide substrate, LabChip", "setting": "[5]", "result": "Caspase inhibitor blocks caspase-2-mediated cleavage of Asp314 peptide substrate"}
    ]}
  ]
}
